Test results from article PMC9610207 (Viruses, 2022).
No end group written: not given here.

Columns and labels:
[1] = target: SNX27 PDZ (amino acids 740–141) (human, UniProt Q96L92 43-136); test: fluorescence polarisation; conditions: both partners purified
[2] = target: T1, MPP5 PDZ (amino acids 238–336) (human, UniProt Q8N3R9 238-336); test: fluorescence polarisation; conditions: both partners purified
T1 sequence (looked up): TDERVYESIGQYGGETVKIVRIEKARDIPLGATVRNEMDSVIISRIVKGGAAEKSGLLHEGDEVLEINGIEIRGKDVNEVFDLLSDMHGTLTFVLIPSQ

Row | Binder | Kd [1] [µM] | Kd [2] [µM]
1 | EPTTTTSVPL (also: FITC-labeled) [FITC-labeled peptide of the C-terminus of SARS-CoV-2 ORF3a (ORF3A 266-275)] | > 400 | –
2 | NSSRVPDLLV (also: FITC-labeled, also called peptide from the E protein) [FITC-labeled peptide of the C-terminus of the SARS-CoV-2 E protein (E66-77)] | > 400 | 400 ± 55
